# Source: patent publication US20230090311A1, “SELF-ASSEMBLING, SELF-A[…] FOR […] OF VACCINES” (THE UNIVERSITY OF QUEENSLAND, priority 2020, published 2023)
# Several values for one entry are separate records, joined by “and”; a condition that tells them apart may be missing. Equal entries are not always repeated. Entries after “also recorded” stand apart in the source; their conditions may differ. No end group written: not given here.
# How the values were obtained:
# J8 = format: in vivo, C57BL/6 mice; conditions: first animal study (epitope arrangement); 50 μg s.c., days 0, 21, 28, 35; listed as Conjugate 3
# [1] = Transmission Electron Microscopy, Example 5; format: physicochemical; conditions: negative staining; NP = nanoparticles, CLANs = chain like aggregates of nanoparticles
# Source text: Transmission Electron Microscopy. Particle-imaging was captured using a JEM-1010 TEM (HT7700 Exalens, HITACHI Ltd., JEOL Ltd., Japan) operated at 80 kV, using negative staining. Samples of compounds 1-11 (1:2 dilution of samples prepared for DLS analysis) were applied to glow-discharged carbon-coated copper 200-mesh grids (Ted Pella) and negative-stained with 2% phosphotungstic acid.
# [2] = Dynamic Light Scattering, Example 5; format: physicochemical; conditions: for Polydispersity index (PDI): DLS; for Particle size (nm) DLS: size as measured by intensity, 1-4 1 mg/mL, 5-11 2 mg/mL in PBS
# Procedure: Dynamic Light Scattering. Individual compounds 1-4 (1 mg/mL in PBS) and 5-11 (2 mg/mL in PBS) were analyzed using DLS to measure particle size (zeta intensity) and PDI. The samples were treated with ultrasonication for 30 min, then transferred into disposable cuvettes. Measurement were taken at 25° C. and […] light scattering. DLS measurements were taken using a Zetasizer Nano ZP instrument (Malvern Instrument, UK) with Malvern Zetasizer Analyser 6.2 software.
# p145 = conditions: second animal study
# [3] = tested on: E749-57 (RAHYNIVTF) peptide-specific CD8+ T-cell response; assay: IFN-gamma ELISPOT assay; format: in vivo, C57BL/6 mice; conditions: splenocytes ten days after immunisation, restimulated with E7 peptide
# Procedure: The mice received single dose of vaccine.
# ELISPOT plates were coated with 5 μg mL-1 IFN-g capture antibody (clone) in PBS at 4° C. overnight. The plates were then blocked with RPM/20% FCs at room temperature for 3 hours. Splenocytes from C57/BL/6 mice were harvested from the spleens of naïve and immunised mice. The red blood cells were depleted using red blood cell lysing buffer (0.155 M ammonium chloride in 0.01 M Tris-HCl buffer, Sigma). Splenocytes were then resuspended in RPMI (sigma) supplemented with 20% FACs (100 UmL-1 penicillin and 100 μg mL-1 streptomycin and 50 μM b-mercaptoethanol. The cells were plated at 5×10^5 cells per well in triplicate on ELISPOT plates. E7 peptide (10 μg mL-1) was added alongside 10 ng mL-1 rhIL-2 to a final volume of 200 μL per well. Plates were incubated for 8 hours at 37 C, washed and biotinylated IFN-g detection antibody in 1% BSA added at room temperature, plates were washed again and bound cytokine was visualised with 3-amino-9ethylcarbozole. Spots were counted with an ELISPOT reader.
# [4] = Characterisation of nanoliposomes by DLS, Example 2; format: physicochemical
# Procedure: The particle size, zeta potential and polydispersity of vaccine candidates were measured by dynamic light scattering (DLS) using zetasizer (Nano ZX, Marvern, England). The particle morphology of vaccine candidates was examined using transmission electron microscope (TEM) (HT7700 Exalens, HITACHI Ltd., Japan) after vacuum-drying. Briefly, the sample were diluted in pure distilled water (1:100) and dropped directly on a glow-discharged carbon coated copper grid and then stained with 2% uranyl acetate.
# TC-1 tumour cells = assay: In vivo tumour treatment experiments
# RBD = conditions: 30 μg with CFA, single s.c. immunization; serum day 14
# B1 = conditions: 30 μg with CFA, single s.c. immunization
substance,measurement,setting,value
Ac-(Leu)15-PADRE-K-J8 (Ac-LLLLLLLLLLLLLLLAKFVAAWTLKAAAKQAEDKVKQSREAKKQVEKALKQLEDKVQ) [Compound 3],J8-specific serum IgG antibody titers,J8,significant immunoglobulin G (IgG) titers after the primary immunization; also recorded: higher antibody titers than the previously identified lead vaccine candidate (2)
Ac-(Phe-Leu-Ala)5-PADRE-J8 (Ac-FLAFLAFLAFLAFLAAKFVAAWTLKAAAQAEDKVKQSREAKKQVEKALKQLEDKVQ) [Compound 11],Particle size (nm) TEM,[1],10-20 nm NP and CLANs
same,Polydispersity index (PDI),[2],0.44 ± 0.02
same,Particle size (nm) DLS,[2],255 ± 9 nm
AKFVAAWTLKAAAQAEDKVKQSREAKKQVEKALKQLEDKVQ [Compound 1],p145-specific serum IgG antibodies,p145,less efficient or completely unable to recognize p145
LLLLLLLLLLQAEPDRAHYNIVTF [Leu-8Qm],IFN-gamma production (ELISPOT),[3],significantly produced IFN levels
same,PDI,[4]; DLS,0.6 and 0.6 ± 0.1
same,Size,[4]; DLS,4000 ± 150 nm
same,Charge,[4]; zeta potential,−10 mV and −10 ± 5 mV
same,survival of tumour-bearing mice,TC-1 tumour cells; single dose 100 μg on day 7 after TC-1 inoculation,increased survival rate of tumour infected mice
same,day by which tumours of all mice exceeded 1 cm^3,TC-1 tumour cells; single dose on day 7 after TC-1 inoculation,57 days
Ac-(Ser)15-PADRE-J8 (Ac-SSSSSSSSSSSSSSSAKFVAAWTLKAAAQAEDKVKQSREAKKQVEKALKQLEDKVQ) [Compound 10],Particle size (nm) TEM,[1],10-90 nm NP and CLANs
same,Polydispersity index (PDI),[2],0.31 ± 0.02
same,Particle size (nm) DLS,[2],240 ± 9 nm
AIHADQLTPTWRVYSTG [Compound B1],anti-RBD IgG,RBD,did not generate anti-RBD IgG
same,antibody titers against the epitope itself,B1,did not generate significant antibody titers against itself
